What was measured:
[1] = system: Pseudomonas fluorescens phosphinothricin dehydrogenase (PPTDH, PfGluDH; WP_150701510.1) mutant A164G_R205K_T332A, SEQ ID No.1; format: biochemical
[2] = system: CP(=O)(O)CCC(=O)C(=O)O; assay: cells, lysate or membranes named; details: pH 7.0; 40.0 °C

**Q.** With `CP(=O)(O)CCC(=O)C(=O)O` [PPO, 2-carbonyl-4-(hydroxymethylphosphono)butyric acid] as the compound, how does the “catalytic efficiency (kcat/Km) for PPO, increase compared with the wild type” value [1] read?
**A.** 145.83 times

**Q.** “Pseudomonas fluorescens phosphinothricin dehydrogenase (PPTDH, PfGluDH; NCBI accession number WP_150701510.1), wild type (Pseudomonas azerbaijanoccidentalis)” was tested. Which Km [2] did it give?
**A.** 6.12 ± 0.32 mM

**Q.** What about the kcat [2] of the same compound?
**A.** 7.47 ± 0.22 s⁻¹

**Q.** What about the kcat/Km [2] of the same compound?
**A.** 1220 M⁻¹ s⁻¹

From patent publication US12152264B2, “Phosphinothricin dehydrogenase mutant, genetically engineered bacterium and one-pot multi-enzyme synchronous directed evolution method” (ZHEJIANG UNIVERSITY OF TECHNOLOGY, priority 2020, dated 2024)
